In patent US20210403595 (published 2021):
Read-outs that look alike come from different tables or passages of the source.

Legend:
[1] = molecular target: human CD3 epsilon/delta heterodimer, Fc-tagged (human); experiment: SPR, 25C antigen-capture
[2] = molecular target: human CD3 epsilon/delta heterodimer, Fc-tagged (human); experiment: SPR, 25C antibody-capture
[3] = molecular target: human CD3 on Jurkat cells (human); experiment: FACS
[4] = molecular target: human CD3 on Jurkat cells (human); experiment: FACS; remark: listed apart in the source
[5] = molecular target: human CD3 epsilon/delta heterodimer, Fc-tagged (human); experiment: SPR, 37C
[6] = molecular target: T1, cynomolgus CD3 on T cells (cynomolgus monkey); experiment: FACS
T1 chain: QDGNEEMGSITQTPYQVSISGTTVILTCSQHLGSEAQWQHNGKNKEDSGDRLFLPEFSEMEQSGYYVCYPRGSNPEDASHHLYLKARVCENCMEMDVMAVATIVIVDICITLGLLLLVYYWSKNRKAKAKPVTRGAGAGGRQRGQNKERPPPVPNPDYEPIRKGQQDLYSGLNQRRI

[7] = molecular target: human CD3 on Jurkat cells (human); experiment: FACS; remark: listed apart in the source
[8] = molecular target: human CD3 epsilon/delta heterodimer, Fc-tagged (human); experiment: SPR, 25C antibody-capture; remark: listed apart in the source

Sequence of human CD3 epsilon/delta heterodimer, Fc-tagged (human) (chain, as listed by the source mutant, chain 1 of 2): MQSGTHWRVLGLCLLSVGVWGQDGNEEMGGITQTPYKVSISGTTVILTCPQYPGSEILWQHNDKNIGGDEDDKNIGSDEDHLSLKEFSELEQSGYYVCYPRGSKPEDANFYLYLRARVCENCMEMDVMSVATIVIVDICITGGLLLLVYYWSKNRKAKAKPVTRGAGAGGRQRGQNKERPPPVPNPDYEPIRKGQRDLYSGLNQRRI
Sequence of human CD3 epsilon/delta heterodimer, Fc-tagged (human) (chain, as listed by the source mutant, chain 2 of 2): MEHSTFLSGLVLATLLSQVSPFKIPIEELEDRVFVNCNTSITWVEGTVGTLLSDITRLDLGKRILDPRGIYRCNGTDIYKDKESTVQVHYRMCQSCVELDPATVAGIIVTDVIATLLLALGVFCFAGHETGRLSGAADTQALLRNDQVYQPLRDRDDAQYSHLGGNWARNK
Sequence of human CD3 on Jurkat cells (human) (chain, as listed by the source, chain 1 of 2): as the sequence (chain, as listed by the source mutant, chain 1 of 2) above
Sequence of human CD3 on Jurkat cells (human) (chain, as listed by the source, chain 2 of 2): as the sequence (chain, as listed by the source mutant, chain 2 of 2) above

Row | Binder | Kd [1] | binding result [4] | binding result [5] | binding result [6] | further results
1 | H2M2705N (antibody, V domains shown) VH: QVQLVESGGGVVQPGRSLRLACVASGFTFRSYGMHWVRQAPGKGLQWVAMIYYDGKNKYYADSVRGRFTISRDNSKNTLYLQMNNLRVEDTAMYFCARGPGYNWLDPWGQGTLVTVSS VL: EIVMTQSPATLSVSPGERATLSCRASQRISSNLAWYQQKPGQAPRLLIYGASTRATGSPARFSGSGSGTDFTLTISSLQSEDVAVYYCQQHHNWPLTFGGGTKVEIK | 0.14 nM | – | – | – | Kd [2]: 13.7 nM; EC50 [3]: 0.296 nM
2 | BSPSMA/CD3-400 CD3 arm (antibody, V domains shown) VH: EVQLVESGGGLVQPGRSLRLSCAASGFTFDDYAMHWVRQAPGKGLEWVSGISWNSGSIGYADSVKGRFTISRDNAKNSLYLQMNSLRAEDTALYYCAKDGSGYGKFYYYGMDVWGQGTTVTVSS VL: not shown | – | no binding | no binding | no binding | –
3 | BSPSMA/CD3-300 CD3 arm (antibody, V domains shown) VH: EVQLVESGGGLVQPGRSLRLSCAASGFTFDDYSMHWVRQAPGKGLEWVSGISWNSGSIGYADSVKGRFTISRDNAKNSLYLQMNSLRAEDTALYYCAKDGSGYGYFYYYGMDVWGQGTTVTVSS VL: not shown | – | no binding | no binding | no binding | –
4 | H2M2776N (antibody, not fully specified; listing feature) chain 1: QVQLVESGGGVVQPGRSLRLSCAASGFTFRSFGMHWVRQAPGRGLEWVAMIYFDGKNKYYADSVRGRFTISRDNSKNTLYLEMSSLRAEDTAVYFCARGPGYNWLDPWGQGTLVTVSS chain 2: EIVMTQSPATLSVSPGERVILSCRASQSISRNLAWYQXKPGQAPRLLIYGATTRATGVPARFSGSGSGTEFTLTISSLQSEDFAVFYCQQYNNRPLTFGGGTEVEIK | 0.14 nM | – | – | – | –
5 | H1H5785B (antibody, V domains shown) VH: QVQLVESGGGVVQPGRSLRLSCAASGLTFSTYVMHWVRQAPGKGLAWVAVIANDGSNKYYADSVKGRFTISRDNSKNTLYLQMNSLRPEDTAVYFCAKEGGTSGSYYYYGMDVWGQGTTVTVSS VL: DIQMTQSPDSLAVSLGERATINCKSSQSLLFNSINKNYLAWYQQKPGQPPKLLLYWASTRESGIPDRFSGSGSGTDFTLTITSLQAEDVALYYCQQYYSIPWTFGQGTKVEIKR | – | – | – | – | binding result [7]: no binding
6 | BSPSMA/CD3-200 CD3 arm (antibody, V domains shown) VH: EVQLVESGGGLVQPGRSLRLSCAASGFTFDDYAMHWVRQAPGKGLEWVSGISWNSGSIGYADSVKGRFTISRDNAKNSLYLQMNSLRAEDTALYYCAKDGSGYGYFYYYGMDVWGQGTTVTVSS VL: not shown | – | no binding | no binding | no binding | –
7 | H2M3547N (antibody, V domains shown) VH: EAQLVESGGGLVQPGRSLRLSCTTSGFTFDDYTMHWVRQAPGKGLEWISDISWNGGTKGYADSVKGRFTISRDNAKNSLYLQMDSLRGEDTALYYCVKDKSGYGHFYFGLDVWGQGTTVTVSS VL: DIQMTQSPSSLTASVGDRVTFTCRASQSISRHLSWYQQKPGKAPKLLIYAASSLESGVPSRFSGSGSGTDFTLTISSLHPEDFATYYCQQSYSNPPITFGQGTRLEIK | 0.0215 nM | – | – | – | –
8 | H1H5756B (antibody, V domains shown) VH: EVQLVESGGGVVQPGRSLRLSCTASGFPFSRYGMHWVRQAPGKGLEWVTFIWYDGSNKYYADSAKGRFTITRDNSKNTVYLQMDSLRADDTAVYYCVRDQAALYYFDSWGQGTLVTVSS VL: DIQMTQSPSSVSASVGDRVTITCRASQGISRWLAWYQQKPGKAPKLLISAASSLQSGVPSRFSGSGSGTDFTLTISGLQPEDFATYYCQKANSFPFTFGPGTKLEIKR | – | – | – | – | binding result [7]: no binding
9 | H1H7258P (antibody, V domains shown) VH: QVQLVESGGGLVQPGRSLRLSCAASGFTFDDYTMHWVRQGPGKGLEWVSDIGWNSNTIGYADSVKGRFTISRDNARNSLYLQMNSLRPEDTALYYCVKDKSGYGKFQYGLDVWGQGTTVTVSS VL: not shown | – | – | – | – | Kd [8]: 24 nM
10 | H1H7241P (antibody, V domains shown) VH: EVQLVESGGGLVQPGRSLRLSCAASGFTFADYTMHWVRQGPGKGLEWVSDIGWNSNTIGYADSVKGRFAISRDNAKNSLYLQMNSLRPEDTALYYCVKDKSGYGKFQYGLDVWGQGTTVTVSS VL: not shown | – | – | – | – | Kd [8]: 22 nM
